The text below walks through data of patent US7674604.

Assay [1] has as its target LFA-1 mutant K287C/K294C (αL K287C/K294C with β2) on 293T or K562 transfectants (human) (UniProt P05107). As to the kind of experiment: flow cytometry on transfectants. (In general: A flow cytometer gives signals particle by particle.)
For assay [2], the target named is LFA-1 mutant L289C/K294C (αL L289C/K294C with β2) on 293T or K562 transfectants (human) (UniProt P05107). As to the kind of experiment: flow cytometry, K562, normalized to TS2/4.
The target of assay [3] is LFA-1 mutant K287C/K294C (αL K287C/K294C with β2) on 293T or K562 transfectants (human) (UniProt P05107). As to the kind of experiment: flow cytometry, K562, normalized to TS2/4.
Assay [4] concerns the target isolated K287C/K294C αL I-domain (V130-A338) expressed on K562 cells by the PDGF receptor transmembrane domain (human) (UniProt P20701). Description: flow cytometry on K562 transfectants.
The target of assay [5] is LFA-1 single cysteine substitution mutant K294C on 293T transfectants (human) (UniProt P05107). As to the kind of experiment: flow cytometry, 293T, normalized to TS2/4.
For assay [6], the target named is LFA-1 single cysteine substitution mutant L289C on 293T transfectants (human) (UniProt P05107). As to the kind of experiment: flow cytometry, 293T, normalized to TS2/4.
Assay [7] concerns the target LFA-1 single cysteine substitution mutant K287C on 293T transfectants (human) (UniProt P05107). Description: flow cytometry, 293T, normalized to TS2/4.
Assay [8] concerns the target LFA-1 mutant L289C/K294C (αL L289C/K294C with β2) on 293T or K562 transfectants (human) (UniProt P05107). As to the kind of experiment: flow cytometry, 293T, normalized to TS2/4.
Assay [9] has as its target LFA-1 mutant K287C/K294C (αL K287C/K294C with β2) on 293T or K562 transfectants (human) (UniProt P05107). Description: flow cytometry, 293T, normalized to TS2/4.
Assay [10] concerns the target isolated wild-type αL I-domain (V130-A338) expressed on K562 cells by the PDGF receptor transmembrane domain (human). As to the kind of experiment: flow cytometry on K562 transfectants, panel 'WT I-domain (#1)'.
Assay [11] deals with isolated L289C/K294C αL I-domain (V130-A338) expressed on K562 cells by the PDGF receptor transmembrane domain (human) (UniProt P20701). Description: flow cytometry on K562 transfectants, panel 'L289C/K294C I-domain (#1)'.
Sequence of isolated L289C/K294C αL I-domain (V130-A338) expressed on K562 cells by the PDGF receptor transmembrane domain (human) (P20701 155-363 L314C/K319C limits assumed): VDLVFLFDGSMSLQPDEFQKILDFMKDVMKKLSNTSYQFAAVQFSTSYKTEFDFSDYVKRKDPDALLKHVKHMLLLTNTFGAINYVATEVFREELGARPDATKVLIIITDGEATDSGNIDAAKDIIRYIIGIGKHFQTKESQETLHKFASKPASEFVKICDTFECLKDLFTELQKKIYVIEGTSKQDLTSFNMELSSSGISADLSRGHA
Assay [12] addresses isolated K287C/K294C αL I-domain (V130-A338) expressed on K562 cells by the PDGF receptor transmembrane domain (human) (UniProt P20701). As to the kind of experiment: flow cytometry on K562 transfectants, panel 'K287C/K294C I-domain (#2)'.
Assay [13] has as its target isolated L289C/K294C αL I-domain (V130-A338) expressed on K562 cells by the PDGF receptor transmembrane domain (human) (UniProt P20701). As to the kind of experiment: flow cytometry on K562 transfectants, panel 'L289C/K294C I-domain (#2)'.
The target of assay [14] is isolated K287C/K294C αL I-domain (V130-A338) expressed on K562 cells by the PDGF receptor transmembrane domain (human) (UniProt P20701). As to the kind of experiment: flow cytometry on K562 transfectants, panel 'K287C/K294C I-domain (#1)'.
Sequence of isolated K287C/K294C αL I-domain (V130-A338) expressed on K562 cells by the PDGF receptor transmembrane domain (human) (P20701 155-363 K312C/K319C limits assumed): as the sequence (P20701 155-363 L314C/K319C limits assumed) above, with K158C, C160L counted along it
For assay [15], the target named is isolated wild-type αL I-domain (V130-A338) expressed on K562 cells by the PDGF receptor transmembrane domain (human). As to the kind of experiment: flow cytometry on K562 transfectants, panel 'WT I-domain (#2)'; nothing is printed after the point.
Sequence of isolated wild-type αL I-domain (V130-A338) expressed on K562 cells by the PDGF receptor transmembrane domain (human) (P09619 other isoform, or with tags, fused parts or gaps): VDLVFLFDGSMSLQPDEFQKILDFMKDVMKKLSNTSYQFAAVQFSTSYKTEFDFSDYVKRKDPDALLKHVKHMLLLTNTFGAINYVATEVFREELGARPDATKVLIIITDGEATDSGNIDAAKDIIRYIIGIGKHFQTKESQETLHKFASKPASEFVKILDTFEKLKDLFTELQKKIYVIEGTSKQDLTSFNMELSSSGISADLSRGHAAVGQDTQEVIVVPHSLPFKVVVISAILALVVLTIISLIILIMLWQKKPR
The target in assay [16] is wild-type LFA-1 (αL/β2 complex) expressed on 293T or K562 transfectants (human) (UniProt P05107). Description: flow cytometry on K562 transfectants, panel 'intact LFA-1'.
Assay [17] concerns the target recombinant ICAM-1 Fc chimera immobilized on the BIAcore sensor chip (UniProt P05362). As to the kind of experiment: BIAcore; Scatchard plot at steady state; Table 6 kinetic study; KD from Scatchard plots at steady state, millimolar affinity. (Surface plasmon resonance follows binding to a sensor surface in real time, without labels.)
Assay [18] has the same target. Description: BIAcore; fit of dissociation phase, 1:1 model; Table 6 kinetic study; Koff from a 1:1 fit of the dissociation phase.
The target is the same in assay [19]. Description: BIAcore; Kon calculated by Koff/KD; Table 6 kinetic study; Kon calculated as Koff/KD from steady-state data, very weak binding.
Assay [20] has as its target wild-type LFA-1 (αL/β2 complex) expressed on 293T or K562 transfectants (human) (UniProt P05107). Description: inhibition of adhesion of K562 transfectants (+CBRLFA-1/2) to immobilized ICAM-1.
For assay [21], the target named is LFA-1 mutant K287C/K294C (αL K287C/K294C with β2) on 293T or K562 transfectants (human) (UniProt P05107). As to the kind of experiment: inhibition of adhesion of K562 transfectants to immobilized ICAM-1.
The target is the same in assay [22]. As to the kind of experiment: flow cytometry, K562, normalized to TS1/22.

Sequence of recombinant ICAM-1 Fc chimera immobilized on the BIAcore sensor chip (P05362 28-480 limits assumed, stated change not applied): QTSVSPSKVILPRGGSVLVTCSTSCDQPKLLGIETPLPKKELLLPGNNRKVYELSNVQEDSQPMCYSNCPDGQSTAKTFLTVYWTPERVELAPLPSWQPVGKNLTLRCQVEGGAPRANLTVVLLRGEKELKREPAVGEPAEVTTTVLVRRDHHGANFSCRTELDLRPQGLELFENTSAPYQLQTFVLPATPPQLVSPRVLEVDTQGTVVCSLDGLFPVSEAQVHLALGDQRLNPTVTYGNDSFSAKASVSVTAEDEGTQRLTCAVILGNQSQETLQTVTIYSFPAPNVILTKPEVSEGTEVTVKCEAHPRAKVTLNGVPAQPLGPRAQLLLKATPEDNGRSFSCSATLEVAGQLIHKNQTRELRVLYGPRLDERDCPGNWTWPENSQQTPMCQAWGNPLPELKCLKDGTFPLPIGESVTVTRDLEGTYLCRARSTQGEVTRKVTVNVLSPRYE

The substance monoclonal antibody CBRLFA-1/1 showed a % of wild-type binding (% of wild-type) in assay [1] of 40 to 50. Besides, the % wild-type binding (% of wild-type) in [2] was 118; in assay [3], 55.5; in assay [5], 89.4; in assay [6], 93.3; in [7] it was 86.1; in [8] it was 95.9. The % wild-type binding (% of wild-type) in assay [9] is 43.6. For the same substance, in assay [4], the % of binding to the wild-type I-domain (% of wild-type I-domain) is 80.
As for “mouse anti-human αL (CD11a) monoclonal antibody TS1/22”, the % wild-type binding (% of wild-type) in [2] came out at 110; in assay [3], 93.1; in assay [5], 92.2; in assay [6] it was 96.2; in [7], 103; in assay [8] it was 91. In addition, in assay [9], the % wild-type binding (% of wild-type) came to 95.8. Also, the mean fluorescent intensity came to 67.3 in assay [10]; 71.1 in [11]; 84.6 in assay [12]; 151 in assay [13]; 66.3 in assay [14]; 205 in assay [15]. This substance also came in with a mean fluorescent intensity in [16] of 104.
Regarding “recombinant soluble wild-type αL I-domain (G128 to Y307), made in E. coli (from UniProt P20701 153-332) (receptor)”, the equilibrium dissociation constant (Kd) in assay [17] is 1.35 mM. Further, the koff in [18] was determined as 3 s⁻¹. In addition, the kon in assay [19] was 2220 M⁻¹ s⁻¹.
As for monoclonal antibody YFC51, the % wild-type binding (% of wild-type) was found to be 111 in assay [2], 101 in [3], 95.1 in [8] and 103 in [9]. The % inhibition in assay [20] is 98.4%; in assay [21] it was 0.08%.
Substance monoclonal antibody CBRLFA-1/9 returned a % wild-type binding (% of wild-type) in assay [22] of 84.7.

In general, Kd refers to the equilibrium constant for the complex coming apart. What is called koff is the rate constant with which the complex falls apart. As usually defined, the kon is the rate constant with which the complex forms. One may read the % inhibition as the relative decrease from the control value, in per cent. A lower % inhibition goes with a response near the control.
